Reference: paper PMC8230665, “Specificity of Human Sulfiredoxin for Reductant and Peroxiredoxin Oligomeric State” (Antioxidants, 2021)

T1: hyperoxidized wild-type human peroxiredoxin 1, decameric (Prx1-SO2H) (human, UniProt Q06830 1-199, cysteine sulfinic acid at the peroxidatic cysteine (CP-SO2H; CP is Cys52))
T1 construct: peroxiredoxin 1 (Prx1), human; also called hyperoxidized Prx1; copies: 10
T1 sequence (looked up): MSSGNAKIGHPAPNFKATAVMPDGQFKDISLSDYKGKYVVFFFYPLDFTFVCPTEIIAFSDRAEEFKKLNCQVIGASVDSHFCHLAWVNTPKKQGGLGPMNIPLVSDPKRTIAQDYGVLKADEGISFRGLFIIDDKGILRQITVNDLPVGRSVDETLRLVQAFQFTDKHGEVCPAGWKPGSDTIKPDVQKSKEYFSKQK


How the values were obtained:
[1] = molecular target: T1, hyperoxidized wild-type human …; assay: fluorescence polarisation; Oregon Green 514-labelled Srx variants, decameric Prx1-SO2H added; MgCl2 omitted to prevent turnover; curves fit to a single site, saturable model; conditions: both partners purified
[2] = molecular target: the molecule itself; assay: SEC-MALS; 2 mg/mL (86-93 µM) Prx in 50 mM HEPES pH 7.5, 100 mM NaCl; TSK Gel 4000 SW; reduced samples with 10 mM DTT, oxidized samples with 1.2 equivalents of H2O2
[3] = molecular target: the molecule itself; assay: crystal structure; disulfide-bonded Srx-Prx1 complex (Cys99 of Srx to Cys52 of Prx1); hanging drop, 100 mM citric acid pH 4.5, 26% PEG 400, 100 mM CsCl; 3.0 Å, space group C2

Binder	stoichiometry N [2]	also measured
Oregon Green 514-labelled human sulfiredoxin Tyr128Ala (enzyme, Oregon Green 514 label (position not given), sulfiredoxin (Srx), human; The unlabelled variant was used in the HPLC activity assay; also called Srx Y128A; source: site-directed mutant (QuikChange), purified) not shown		Kd [1]: 12.5 ± 1.2 µM
human peroxiredoxin 2, wild type (enzyme, UniProt P32119 1-198, looked up, peroxiredoxin 2 (Prx2), human; Stored in the disulfide-bonded form; run on SEC-MALS reduced (10 mM DTT) or oxidized (1.2 equivalents of H2O2); In the repair assay the protein was hyperoxidized (CP-SO2H); also called Prx2; WT Prx2; copies: 10) MASGNARIGKPAPDFKATAVVDGAFKEVKLSDYKGKYVVLFFYPLDFTFVCPTEIIAFSNRAEDFRKLGCEVLGVSVDSQFTHLAWINTPRKEGGLGPLNIPLLADVTRRLSEDYGVLKTDEGIAYRGLFIIDGKGVLRQITVNDLPVGRSVDEALRLVQAFQYTDEHGEVCPAGWKPGSDTIKPNVDDSKEYFSKHN	10	
human peroxiredoxin 2 Thr82Glu, engineered dimer (enzyme, UniProt P32119 1-198, looked up, peroxiredoxin 2 (Prx2), human; Vector pET19pp; His tag removed with HRV-3C protease; Section 2.6 prints the mutation as T83E; In the repair assay the protein was about 80% hyperoxidized; also called Prx2-T82E; Prx2-E; source: E. coli BL21Gold (DE3), purified (HisPur Cobalt, Q-Sepharose, Superdex 200); not shown: His tag, N-terminal, cleaved) MASGNARIGKPAPDFKATAVVDGAFKEVKLSDYKGKYVVLFFYPLDFTFVCPTEIIAFSNRAEDFRKLGCEVLGVSVDSQFEHLAWINTPRKEGGLGPLNIPLLADVTRRLSEDYGVLKTDEGIAYRGLFIIDGKGVLRQITVNDLPVGRSVDEALRLVQAFQYTDEHGEVCPAGWKPGSDTIKPNVDDSKEYFSKHN	2	
human peroxiredoxin 3 Ser139Glu/Ala142Glu, engineered dimer (enzyme, UniProt P30048 62-256, looked up, peroxiredoxin 3 (Prx3), mitochondrial, human; Vector pET15b; His tag removed with thrombin; In the repair assay the protein was about 20% hyperoxidized; also called Prx3-S139E/A142E; Prx3-EE; source: E. coli BL21Gold (DE3), purified (HisPur Cobalt, Q-Sepharose, Superdex 200); not shown: His tag, N-terminal, cleaved) APAVTQHAPYFKGTAVVNGEFKDLSLDDFKGKYLVLFFYPLDFTFVCPTEIVAFSDKANEFHDVNCEVVAVSVDSHFEHLEWINTPRKNGGLGHMNIALLSDLTKQISRDYGVLLEGSGLALRGLFIIDPNGVIKHLSVNDLPVGRSVEETLRLVKAFQYVETHGEVCPANWTPDSPTIKPSPAASKEYFQKVNQ	2	
human peroxiredoxin 3, wild type (enzyme, UniProt P30048 62-256, looked up, peroxiredoxin 3 (Prx3), mitochondrial, human; In the repair assay the protein was hyperoxidized (CP-SO2H); also called Prx3; WT Prx3; copies: 12) APAVTQHAPYFKGTAVVNGEFKDLSLDDFKGKYLVLFFYPLDFTFVCPTEIVAFSDKANEFHDVNCEVVAVSVDSHFSHLAWINTPRKNGGLGHMNIALLSDLTKQISRDYGVLLEGSGLALRGLFIIDPNGVIKHLSVNDLPVGRSVEETLRLVKAFQYVETHGEVCPANWTPDSPTIKPSPAASKEYFQKVNQ	12	
Oregon Green 514-labelled human sulfiredoxin (Srx), wild type (enzyme, Oregon Green 514 label (position not given), sulfiredoxin (Srx), human; also called WT Srx; Oregon Green labeled Srx) not shown		Kd [1]: 7 ± 1.5 µM
human peroxiredoxin 1 variant C71S, C83V, C173S (decamer) (enzyme, Cys52 disulfide-bonded to Cys99 of Srx (made through a Cys52-S-TNB mixed disulfide), peroxiredoxin 1 (Prx1), human; Only the peroxidatic Cys52 is left; C83V was put in to stabilise the decamer; also called Prx1 variant; Prx1 C83V mutant; source: purified; treated with DTNB, then titrated with Srx; copies: 10) MSSGNAKIGHPAPNFKATAVMPDGQFKDISLSDYKGKYVVFFFYPLDFTFVCPTEIIAFSDRAEEFKKLNSQVIGASVDSHFVHLAWVNTPKKQGGLGPMNIPLVSDPKRTIAQDYGVLKADEGISFRGLFIIDDKGILRQITVNDLPVGRSVDETLRLVQAFQFTDKHGEVSPAGWKPGSDTIKPDVQKSKEYFSKQK		stoichiometry N [3]: 10
